# B1: 抗SARS-CoV-2(COVID-19)S蛋白RBD单克隆抗体B15-5-B3 (antibody, V domains shown)
# VH: EVKFEESGGGLVQPGGSMKLSCAASGFTFSDAWMDWVRQSPEKGLEWVAEIRNKANNHATYYAESVKGRFTISRDDSKSSVYLQMNSLRAEDTGIYYCTPYDYAYPWFWGQGTLVTVSA
# VL: EIVLTQSPTTMAASPGEKITITCSASSSISSHYLHWYQQKPGFSPKLLIYRSYSLASGFPGRFSGSGSGTSFSLSIGTMEAEDVATYYCQQGSSRITPFGGGTKLEIK
# Molecular target: 新冠假病毒Delta突变株的S蛋白 (B.1.617.2(Delta)) (SARS-CoV-2, UniProt P0DTC2 14-1273)
# Assay: cell-based or functional assay
binder,measurement,value
B1,"假病毒中和效应 EC50 (luciferase, HEK293-ACE2 cells)",0.27 µg/mL

# — patent publication CN113999301A (JIANGSU XINTRUM PHARMACEUTICALS CO LTD, dated 2022)
